Read-outs that look alike come from different tables or passages of the source.
How the values were obtained:
Aβ1-40 [1] = target: T1, Aβ1-40 (Homo sapiens, UniProt P05067); test: ThT aggregation of Aβ1-40, Bri2(90-236) added at different time points; assay type: biochemical
T1 construct: made in house; host or cells: E. coli
Description: Aggregation of 8 μM Aβ1-40 was monitored by recording the ThT fluorescence intensity as a function of time in 20 mM Na-phosphate, 200 μM EDTA, 20 μM ThT, 0.02% NaN3, 37° C. with 100 rpm shaking. 800 nM Bri2(90-236) was added from a concentrated stock before the start of the experiment or at different time points after starting the experiment ranging from 0.3 to 11.2 hours.

Aβ1-40 [2] = target: T1, Aβ1-40; assay type: biochemical
Source text: (§1) Aβ1-40 (SEQ ID NO: 11) and Aβ1-42 (SEQ ID NO: 12) were expressed in E. coli from synthetic genes and purified in batch format using ion exchange and size exclusion steps as described in Walsh et al., FEBS J. 2009, 276, 1266-1281, which results in highly pure monomeric peptide. Purified peptide was divided into 20-30 identical aliquots and frozen. Monomer was then isolated by gel filtration of an aliquot of purified peptide just prior to setting up each of the experiments listed below to remove traces of aggregate formed during freezing and thawing and to exchange buffer to the one used in the respective experiment. Monomer was collected in low-bind Ep-tubes ([…]) on ice, and the concentration was determined by absorbance or amino acid analysis after acid hydrolysis. The monomer was used as is or diluted to the desired concentration for the respective experiment. Bri2(90-236) (SEQ ID NO: 2) was expressed and purified as described in Example 1. Aggregation kinetics were studied by recording the Thioflavin T (ThT) fluorescence intensity as a function of time in a plate reader (FluoStar Omega from BMG Labtech, Offenberg, Germany). The fluorescence was recorded using bottom optics in half-area 96-well PEG-coated black polystyrene plates with clear bottom (Corning 3881) using 440 nm excitation filter and 480 nm emission filter. Aβ monomer was isolated by gel filtration as above in 20 mM Na-phosphate, 200 μM EDTA, 0.02% NaN3 (at pH 7.4 in the case of Aβ1-40 and at pH 8.0 for Aβ1-42) and diluted to 6 or 8 μM in the case of Aβ1-40 and 3 μM in the case of Aβ1-42 in the same buffer and supplemented with 20 μM ThT from a 2 mM stock. To each well in the 96-well plate was first added either 10 μl buffer (20 mM Tris/HCl pH 7.4) or 10 μl of Bri2(90-236) protein or control protein at ten times the desired final concentration in 20 mM Tris/HCl pH 7.4. To each well was then added 90 μl of the ice-cold Aβ monomer solution, and the plate was immediately placed in the plate reader at 37° C., with fluorescence read every 6 minutes with continuous shaking at 100 rpm between readings. Aβ1-40 was studied alone or with Bri2(90-236) at a concentration ranging from 60 nM to 6 μM. Aβ1-42 was studied alone or with Bri2(90-236) at a concentration ranging from 20 nM to 6 μM.

ABri23 = target: T2, ABri23 (Homo sapiens, UniProt Q9Y287); test: ESI-MS binding of Bri2(90-236) to ABri23
T2 construct: purchased Bachem (Bubendorf, Switzerland)
Description: Prior to electrospray ionization mass spectrometry (ESI-MS), purified Bri2(90-236) (SEQ ID NO: 2) was rebuffered into 10 mM ammonium acetate, pH 7.0, using spin columns with a 3 kDa cut-off limit (Nanosep, Pall Corp., East Hills, N.Y., USA). Protein and peptides were mixed at 22° C. directly before analysis at a final protein concentration of 20 μM and a final peptide concentration of 50 μM. Data was acquired using a QTOF Ultima API mass spectrometer (Waters, Milford, Mass., USA) equipped with a Z-spray source operated in the positive-ion mode. Samples were introduced via nano-electrospray using metal-plated borosilicate glass capillary needles (Proxeon, Denmark). The source temperature was 80° C., the capillary voltage 1.7 kV, and the cone and RF lens 1 potentials were 100 and 38 V, respectively. The mass spectrometer was operated in single-reflector mode at a resolution of 10 000 (full width half maximum definition), and the mass scale was calibrated using myoglobin. Scans were acquired at a rate of 1 scan per 2 sec between 500 and 4000 m/z. The collision gas was argon at 5.2×10^−5 mbar. Mass spectra were smoothed using the Waters MassLynx software.
All peptides, with the exception of KFFEYNGKKFFE (SEQ ID NO: 15), ABri23 (SEQ ID NO: 4) and Aβ1-40 (SEQ ID NO: 11), were purchased from Thermo Electron (Darmstadt, Germany). KFFEYNGKKFFE was purchased from Interactiva (Ulm, Germany) and Aβ1-40 and disulfide-linked ABri23 were from Bachem (Bubendorf, Switzerland).
Peptides, except for KFFEYNGKKFFE, ABri23 and Aβ1-40, were acetylated at the N-terminus and amidated at the C-terminus. […]
ESI-MS binding experiments were conducted to investigate whether Bri2(90-236) can bind the peptides ABri23 and Aβ1-40. For this purpose, Bri2(90-236) was mixed with ABri23, Aβ1-40, or an equimolar mixture of ABri23 and Aβ1-40, to a final concentration of 20 μM Bri2(90-236) and 50 μM of each peptide, and analyzed by ESI-MS. Mass spectra were recorded to investigate the presence and stoichiometry of protein-peptide complexes in the gas phase.

Aβ1-42 = target: T3, Aβ1-42 (Homo sapiens, UniProt P05067); test: ThT aggregation kinetics of Aβ1-42 (Example 4); assay type: biochemical
T3 construct: made in house; host or cells: E. coli
Source text: as §1, with “Aβ1-40 was studied alone or with Bri2(90-236) at a concentration ranging from 60 nM to 6 μM. Aβ1-42 was studied alone or with Bri2(90-236) at a concentration ranging from 20 nM to 6 μM.” left out

T1 sequence (P05067 672-711): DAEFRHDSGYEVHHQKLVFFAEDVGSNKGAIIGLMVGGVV
T3 sequence (P05067 672-713): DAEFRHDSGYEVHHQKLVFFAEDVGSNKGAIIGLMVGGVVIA

B1: Bri2(90-236): recombinant protein of residues 90-236 of human Bri2 (SEQ ID NO: 2), encompassing the Brichos domain, expressed in E. coli (protein, listed as Homo sapiens)
chain: GIKYIKDDVILNEPSADAPAALYQTIEENIKIFEEEEVEFISVPVPEFADSDPANIVHDFNKKLTAYLDLNLDKCYVIPLNTSIVMPPRNLLELLINIKAGTYLPQSYLIHEHMVITDRIENIDHLGFFIYRLCHDKETYKLQRRET
effect on Aβ1-40 aggregation process (Aβ1-40 [1]; 8 μM Aβ1-40, 800 nM Bri2(90-236) added anywhere during the lag time): can be delayed
effect on Aβ1-40 aggregation process (Aβ1-40 [1]; 8 μM Aβ1-40, 800 nM Bri2(90-236) added at the end of the transition): no effect is seen
effect on Aβ1-40 aggregation process (Aβ1-40 [1]; 8 μM Aβ1-40, 800 nM Bri2(90-236) added close to the mid point of the transition): reduce its speed and progress at lower rate
effect on Aβ1-40 aggregation process (Aβ1-40 [1]; 8 μM Aβ1-40, 800 nM Bri2(90-236) added during the early part of the sigmoidal transition): appears to halt with no further growth of the ThT positive aggregates
prolongation of half time of Aβ1-40 aggregation (Aβ1-40 [2]; 170 nM Bri2(90-236), relative to 6 μM Aβ1-40 alone): approximately 4.5 times
lag time of Aβ1-40 aggregation (Aβ1-40 [2]; 0.01 or 0.03 molar equivalents of Bri2(90-236), far below equimolar): increases extensively
lag time of Aβ1-40 aggregation (Aβ1-40 [2]; above a molar ratio of 0.1 (1 Bri2(90-236) per 10 Aβ1-40 molecules)): exceeds one week
elongation rate of Aβ1-40 aggregation (Aβ1-40 [2]; in the presence of Bri2(90-236)): largely unaffected
Bri2(90-236)/ABri23 complex in competition experiment (ABri23; 20 μM Bri2(90-236) with 50 μM Aβ1-40 and 50 μM ABri23 (equimolar), ESI-MS): nearly all detectable recombinant Bri2(90-236) is complexed with ABri23
saturation of Bri2(90-236) with ABri23 (complex formation) (ABri23; 20 μM Bri2(90-236), 50 μM oxidized ABri23 (2.5-fold molar excess), ESI-MS conditions): near-complete saturation
binding preference ABri23 versus Aβ1-40 (ABri23; competition, both peptides at equimolar amounts, ESI-MS): preferentially binds ABri23
lag time of Aβ1-42 aggregation (Aβ1-42; 3 μM Aβ1-42, molar ratio of 0.1 (1 Bri2(90-236) per 10 Aβ1-42), compared to the undisturbed case): doubled
half time of Aβ1-42 aggregation (Aβ1-42; 3 μM Aβ1-42, molar ratio of 0.1, compared to the undisturbed case): doubled

Source: US8785391B2, “Compound and method for treatment of alzheimer's disease and familial dementia” (Alphabeta AB, priority 2010, dated 2014)
